Source: patent US5597798A, “Taxol and epidermal growth factor used to enhance treatment of ovarian cancer” (The Regents of the University of California, priority 1994, dated 1997)

How the values were obtained:
[1] = system: 2008 human ovarian carcinoma cells; experiment: Colony forming assay, effect of EGF on sensitivity to cytotoxic agents; assay type: cell-based; settings: for survival, % of control cells treated with DDP alone: DDP and EGF together
[2] = parameters: species or system mice; settings: mouse, in vivo
Experimental: For nephrotoxicity studies, 72 h after treatment, mice were anesthetized and 1.5 ml of blood was sampled by cardiac puncture. Plasma creatinine and blood urea nitrogen (BUN) levels were used to measure toxicity and were determined by an enzymatic method previously described (Kulpman et al., J. Clin. Chem. Clin. Biochem. 28(11): 835 (1990)).

2008 tumor xenografts = experiment: Effect of EGF on cisplatin toxicity against tumor xenografts in athymic mice; assay type: in vivo, athymic mice (nu/nu)
Experimental: For these studies, 3 to 4 week old female athymic mice (nu/nu) from BALB/c origin were used which were supplied by Harlan Sprague Dawley, Inc. (Indianapolis, Ind.). The mice were kept in a laminar flow hood at 28° C. and fed standard mouse diet and water ad libitum.
Tumor xenografts were established from 2008 cells by harvesting confluent cell cultures by trypsinization and resuspending the cells in RPMI 1640 medium at 2.5×10^7 cells per ml. From this suspension, 0.2 ml aliquots containing 5×10^6 cells were injected s.c. on each shoulder of the athymic mice. In each mouse, two tumors were followed and tumor volumes were determined using the formula (length×width^2)/2 (Giavazzi et al., Cancer Res. 46:1928 (1986) and Tomayko & Reynolds Cancer Chemother. Pharmacol. 24:148 (1989)).
In all groups, treatment was administered 24 hours after the inoculation with tumor cells.
Tumor growth of each tumor in each animal was expressed as plot of in(tumor volume) as a function of time. The regression line of the in(tumor volume) versus time plot was calculated by using the method of least squares. The intercept and slope were obtained and used to calculate the time each tumor required to reach an arbitrarily defined volume of 1 ml. This volume was chosen because most tumors in all treatment groups reached this endpoint. For comparisons between two groups the unpaired Student's T-test was used. […]

2008 cells [3] = experiment: Morphologic changes induced by EGF (light microscopy of colonies); assay type: cell-based, human; settings: 10 nM EGF for 2 hs, inspected after 10 days
Description: (§1) The colonies formed by the COLO 316 cells appeared somewhat denser.

COLO 316 cells [4] = experiment: as above; assay type: cell-based, human; settings: 10 nM EGF for 2 hs, inspected after 10 days
Description: as §1

2008/C13* cells [5] = experiment: as above; assay type: cell-based, human; settings: 2 h EGF exposure
Description: as §1

2008 cells [6] = experiment: Growth rate under EGF exposure; assay type: cell-based, human; settings: 2 h or continuous exposure to 10 nM EGF
Description: (§2) During the first 5 days after cell seeding, cell growth was exponential. The doubling times of the 2008, 2008/C13*, and COLO 316 cells were 27.9, 28.2, and 29.2 hs, respectively.

COLO 316 cells [7] = experiment: Growth rate under EGF exposure; assay type: cell-based, human; settings: 2 h or continuous exposure to 10 nM EGF
Description: as §2

2008/C13* cells [8] = experiment: Growth rate under EGF exposure; assay type: cell-based, human; settings: 2 h or continuous exposure to 10 nM EGF
Description: as §2

[9] = 2 h exposure to EGF (1 h before and 1 h concurrent with DDP)
[10] = delay between 1 h EGF pre-treatment and 1 h DDP exposure

B1: EGF: Epidermal Growth Factor; murine EGF (Sigma) in clonogenic assays, 125I-labelled human recombinant EGF in binding assays (protein, UniProt P01133 23-1207, looked up)
Pro-epidermal growth factor: PQHWSCPEGTLAGNGNSTCVGPAPFLIFSHGNSIFRIDTEGTNYEQLVVDAGVSVIMDFHYNEKRIYWVDLERQLLQRVFLNGSRQERVCNIEKNVSGMAINWINEEVIWSNQQEGIITVTDMKGNNSHILLSALKYPANVAVDPVERFIFWSSEVAGSLYRADLDGVGVKALLETSEKITAVSLDVLDKRLFWIQYNREGSNSLICSCDYDGGSVHISKHPTQHNLFAMSLFGDRIFYSTWKMKTIWIANKHTGKDMVRINLHSSFVPLGELKVVHPLAQPKAEDDTWEPEQKLCKLRKGNCSSTVCGQDLQSHLCMCAEGYALSRDRKYCEDVNECAFWNHGCTLGCKNTPGSYYCTCPVGFVLLPDGKRCHQLVSCPRNVSECSHDCVLTSEGPLCFCPEGSVLERDGKTCSGCSSPDNGGCSQLCVPLSPVSWECDCFPGYDLQLDEKSCAASGPQPFLLFANSQDIRHMHFDGTDYGTLLSQQMGMVYALDHDPVENKIYFAHTALKWIERANMDGSQRERLIEEGVDVPEGLAVDWIGRRFYWTDRGKSLIGRSDLNGKRSKIITKENISQPRGIAVHPMAKRLFWTDTGINPRIESSSLQGLGRLVIASSDLIWPSGITIDFLTDKLYWCDAKQSVIEMANLDGSKRRRLTQNDVGHPFAVAVFEDYVWFSDWAMPSVMRVNKRTGKDRVRLQGSMLKPSSLVVVHPLAKPGADPCLYQNGGCEHICKKRLGTAWCSCREGFMKASDGKTCLALDGHQLLAGGEVDLKNQVTPLDILSKTRVSEDNITESQHMLVAEIMVSDQDDCAPVGCSMYARCISEGEDATCQCLKGFAGDGKLCSDIDECEMGVPVCPPASSKCINTEGGYVCRCSEGYQGDGIHCLDIDECQLGEHSCGENASCTNTEGGYTCMCAGRLSEPGLICPDSTPPPHLREDDHHYSVRNSDSECPLSHDGYCLHDGVCMYIEALDKYACNCVVGYIGERCQYRDLKWWELRHAGHGQQQKVIVVAVCVVVLVMLLLLSLWGAHYYRTQKLLSKNPKNPYEESSRDVRSRRPADTEDGMSSCPQPWFVVIKEHQDLKNGGQPVAGEDGQAADGSMQPTSWRQEPQLCGMGTEQGCWIPVSSDKGSCPQVMERSFHMPSYGTQTLEGGVEKPHSLLSANPLWQQRALDPPHQMELTQ
modifications: Pro-epidermal growth factor 125I-labelled; murine EGF also used
EGF concentration of maximal enhancement of DDP sensitivity [1, 9]: about 10 nM | lowest EGF concentration that enhanced sensitivity to DDP [1, 9]: 0.4 nM | survival, % of control cells treated with DDP alone ([1]; no cyclohexamide): 31±10% | survival, % of control cells treated with DDP alone ([1]; pretreatment with cyclohexamide inhibiting protein synthesis by 90%): 47±8% | effect of further increase in EGF concentration ([1]; EGF up to 100 nM): no additional change in sensitivity to DDP | loss of EGF mediated increase in sensitivity to DDP [1, 10]: largely disappeared by 24 hs | persistence of EGF mediated increase in sensitivity to DDP [1, 10]: at least 6 hs | serum creatinine or BUN [2]: Neither treatment with EGF alone, cisplatin alone, or EGF plus cisplatin resulted in statistically significant increases in serum creatinine or BUN | time required for tumors to reach a volume of 1 ml (in words) (2008 tumor xenografts; 1 mg/kg EGF s.c. alone or with 15 mg/kg cisplatin i.p.): no effect on the time required for tumors to reach a volume of 1 ml | final tumor volume (2008 tumor xenografts; 1 mg/kg EGF s.c. and/or 15 mg/kg cisplatin i.p., 24 hours after inoculation): no effect on the final tumor volume | morphologic change of colonies (2008 cells [3]): marked scattering of the colonies and the formation of prominent dendritic processes | morphologic change of colonies (COLO 316 cells [4]): marked scattering of the colonies and the formation of prominent dendritic processes | morphologic response (2008/C13* cells [5]): showed no morphologic response | effect on growth rate (2008 cells [6]): Neither a 2 h nor a continuous exposure to 10 nM EGF had any demonstrable impact on the growth rate | effect on growth rate (COLO 316 cells [7]): Neither a 2 h nor a continuous exposure to 10 nM EGF had any demonstrable impact on the growth rate | effect on growth rate (2008/C13* cells [8]): Neither a 2 h nor a continuous exposure to 10 nM EGF had any demonstrable impact on the growth rate
